Here are results for three molecules from paper PMC3678999, “A Structural Basis for IκB Kinase 2 Activation Via Oligomerization-Dependent Trans Auto-Phosphorylation” (PLoS Biology, 2013).

Several values for one entry are separate records, joined by “and”; a condition that tells them apart may be missing. Equal values may be shown once.

Data set [1] deals with the molecule itself. Briefly: crystal structure; hexagonal crystal form, data to 7 Å; molecular replacement with the hIKK2EE(11–669) model and rigid body refinement, called a probable solution; protein mixed with inhibitor MLN120B.
Data set [2] addresses T1, His-tagged full-length human IKK2 (human), O14920.
T1 chain: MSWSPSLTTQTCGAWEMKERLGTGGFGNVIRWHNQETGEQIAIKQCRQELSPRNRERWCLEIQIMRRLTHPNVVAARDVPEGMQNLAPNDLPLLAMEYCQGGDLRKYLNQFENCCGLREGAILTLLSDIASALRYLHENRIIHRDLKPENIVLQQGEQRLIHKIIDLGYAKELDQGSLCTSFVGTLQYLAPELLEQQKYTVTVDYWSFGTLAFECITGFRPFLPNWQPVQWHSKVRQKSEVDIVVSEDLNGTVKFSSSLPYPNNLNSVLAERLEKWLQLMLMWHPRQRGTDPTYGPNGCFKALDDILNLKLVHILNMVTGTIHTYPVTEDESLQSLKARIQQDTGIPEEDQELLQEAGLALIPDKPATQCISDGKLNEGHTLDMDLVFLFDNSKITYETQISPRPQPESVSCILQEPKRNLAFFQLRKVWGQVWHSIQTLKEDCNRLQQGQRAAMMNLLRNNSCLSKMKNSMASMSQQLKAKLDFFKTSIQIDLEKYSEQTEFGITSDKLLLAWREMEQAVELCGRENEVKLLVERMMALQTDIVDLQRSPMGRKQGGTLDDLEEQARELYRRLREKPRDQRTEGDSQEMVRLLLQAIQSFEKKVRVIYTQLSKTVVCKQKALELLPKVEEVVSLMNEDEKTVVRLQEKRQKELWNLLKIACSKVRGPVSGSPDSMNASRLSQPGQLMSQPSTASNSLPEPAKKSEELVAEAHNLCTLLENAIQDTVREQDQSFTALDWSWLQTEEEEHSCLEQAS
Briefly: AUC; sedimentation velocity, ~0.5 mg/ml, 30,000 rpm, 20°C, 15 h; Sedfit. Particulars: remark: other sources report otherwise.

Data set [3] addresses T1, His-tagged full-length human IKK2 …. Briefly: SEC-MALS; SEC-MALLS; protein pretreated with 1 mM ATP, concentrated as for crystallization; Zenix SEC-300 column, 20 mM Tris-Cl pH 8, 150 mM NaCl, 5% glycerol. The note with it: remark: other sources report otherwise. In general terms: In gel filtration, larger molecules generally elute earlier.
Data set [4] deals with the molecule itself. Briefly: crystal structure; tetragonal crystal form, space group P4(1)22, six protomers in the asymmetric unit; protein mixed with inhibitor MLN120B 1:2; sodium malonate pH 6.5, 18°C.

B1: human IKK2 (amino acids 1–700), constitutively active S177E/S181E (domain or fragment, UniProt O14920 1-700, looked up)
chain: MSWSPSLTTQTCGAWEMKERLGTGGFGNVIRWHNQETGEQIAIKQCRQELSPRNRERWCLEIQIMRRLTHPNVVAARDVPEGMQNLAPNDLPLLAMEYCQGGDLRKYLNQFENCCGLREGAILTLLSDIASALRYLHENRIIHRDLKPENIVLQQGEQRLIHKIIDLGYAKELDQGELCTEFVGTLQYLAPELLEQQKYTVTVDYWSFGTLAFECITGFRPFLPNWQPVQWHSKVRQKSEVDIVVSEDLNGTVKFSSSLPYPNNLNSVLAERLEKWLQLMLMWHPRQRGTDPTYGPNGCFKALDDILNLKLVHILNMVTGTIHTYPVTEDESLQSLKARIQQDTGIPEEDQELLQEAGLALIPDKPATQCISDGKLNEGHTLDMDLVFLFDNSKITYETQISPRPQPESVSCILQEPKRNLAFFQLRKVWGQVWHSIQTLKEDCNRLQQGQRAAMMNLLRNNSCLSKMKNSMASMSQQLKAKLDFFKTSIQIDLEKYSEQTEFGITSDKLLLAWREMEQAVELCGRENEVKLLVERMMALQTDIVDLQRSPMGRKQGGTLDDLEEQARELYRRLREKPRDQRTEGDSQEMVRLLLQAIQSFEKKVRVIYTQLSKTVVCKQKALELLPKVEEVVSLMNEDEKTVVRLQEKRQKELWNLLKIACSKVRGPVSGSPDSMNASRLSQPGQLMSQPSTASNSLPE
notes: human IκB kinase 2 (IKK2/IKKβ), amino acids 1–700 (amino acid 701 mutated to a stop codon), with S177E/S181E; Hexagonal crystal form, data to 7 Å; no PDB entry is named for it; also called hIKK2EE 1–700; hIKK2EE(1–700); source: Sf9 (baculovirus), purified (Ni-NTA, TEV, Superdex200); not shown: His6, N-terminal, cleaved
The stoichiometry N is the number of molecules, sites or subunits per partner or assembly. For B1, the “stoichiometry N” value in data set [1] was found to be 2.

B2: His-tagged full-length human IKK2, O14920 1-756 (enzyme)
chain: T1 chain
In the case of B2, the stoichiometry N in data set [2] is 4 and 6 and 8; in data set [3] it was 4.

B3: human IKK2 (amino acids 11–669), constitutively active S177E/S181E (domain or fragment, UniProt O14920 11-669, looked up)
chain: TCGAWEMKERLGTGGFGNVIRWHNQETGEQIAIKQCRQELSPRNRERWCLEIQIMRRLTHPNVVAARDVPEGMQNLAPNDLPLLAMEYCQGGDLRKYLNQFENCCGLREGAILTLLSDIASALRYLHENRIIHRDLKPENIVLQQGEQRLIHKIIDLGYAKELDQGELCTEFVGTLQYLAPELLEQQKYTVTVDYWSFGTLAFECITGFRPFLPNWQPVQWHSKVRQKSEVDIVVSEDLNGTVKFSSSLPYPNNLNSVLAERLEKWLQLMLMWHPRQRGTDPTYGPNGCFKALDDILNLKLVHILNMVTGTIHTYPVTEDESLQSLKARIQQDTGIPEEDQELLQEAGLALIPDKPATQCISDGKLNEGHTLDMDLVFLFDNSKITYETQISPRPQPESVSCILQEPKRNLAFFQLRKVWGQVWHSIQTLKEDCNRLQQGQRAAMMNLLRNNSCLSKMKNSMASMSQQLKAKLDFFKTSIQIDLEKYSEQTEFGITSDKLLLAWREMEQAVELCGRENEVKLLVERMMALQTDIVDLQRSPMGRKQGGTLDDLEEQARELYRRLREKPRDQRTEGDSQEMVRLLLQAIQSFEKKVRVIYTQLSKTVVCKQKALELLPKVEEVVSLMNEDEKTVVRLQEKRQKELWNLLKIACSKVRGPV
notes: human IκB kinase 2 (IKK2/IKKβ), amino acids 11–669, with S177E/S181E; Cloned in pFastBacHTb (N-terminal hexa-histidine tag, TEV site); Incubated with ATP/MgCl2 before the size exclusion column; also called IKK2(11–669)EE; hIKK2EE(11–669); source: Sf9 (baculovirus), purified (Ni-NTA, TEV, Superdex200); not shown: His6, N-terminal, cleaved
For B3, in data set [4], the “stoichiometry N” value was 2 and 4.
